Results taken from US12679878B2, “CRF2 receptor agonists and their use in therapy” (SANOFI, priority 2020, dated 2026).
Starred links: 1 amine or outer side, 2 acyl side, 3 side chain; linkers in the order of their positions; H or OH if unused. Groups on a side chain read outwards from the residue. No end group written: not given here. *: point of attachment. C20 diacid = O=C(O)CCCCCCCCCCCCCCCCCCC(=O)*; C18 diacid = O=C(O)CCCCCCCCCCCCCCCCC(=O)*; γGlu = O=C(O)[C@H](CCC(=O)[*:2])N[*:1]; Palmitoyl = CCCCCCCCCCCCCCCC(=O)*; AEEA = NCCOCCOCC(=O)O

T1: recombinant human CRF2 (HEK cell membranes) (human, UniProt Q13324 1-411)
T1 construct: Whole receptor in membranes prepared from HEK cells; also called CRF2a (h); CRF2 receptor
T1 sequence (looked up): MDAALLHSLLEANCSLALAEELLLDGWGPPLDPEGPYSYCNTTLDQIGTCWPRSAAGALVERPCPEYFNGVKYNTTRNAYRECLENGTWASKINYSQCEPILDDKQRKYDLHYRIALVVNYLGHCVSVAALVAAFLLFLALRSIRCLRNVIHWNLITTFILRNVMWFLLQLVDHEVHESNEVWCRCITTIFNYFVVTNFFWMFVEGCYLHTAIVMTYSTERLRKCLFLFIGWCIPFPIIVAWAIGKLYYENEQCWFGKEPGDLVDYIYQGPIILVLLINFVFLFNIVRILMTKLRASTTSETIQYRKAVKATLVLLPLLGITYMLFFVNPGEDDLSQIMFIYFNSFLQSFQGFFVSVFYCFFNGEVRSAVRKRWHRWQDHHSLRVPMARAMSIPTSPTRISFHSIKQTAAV

T2: endogenous human CRF2 (NCI-H82 cells) (human, UniProt Q13324 20-411)
T2 sequence (looked up): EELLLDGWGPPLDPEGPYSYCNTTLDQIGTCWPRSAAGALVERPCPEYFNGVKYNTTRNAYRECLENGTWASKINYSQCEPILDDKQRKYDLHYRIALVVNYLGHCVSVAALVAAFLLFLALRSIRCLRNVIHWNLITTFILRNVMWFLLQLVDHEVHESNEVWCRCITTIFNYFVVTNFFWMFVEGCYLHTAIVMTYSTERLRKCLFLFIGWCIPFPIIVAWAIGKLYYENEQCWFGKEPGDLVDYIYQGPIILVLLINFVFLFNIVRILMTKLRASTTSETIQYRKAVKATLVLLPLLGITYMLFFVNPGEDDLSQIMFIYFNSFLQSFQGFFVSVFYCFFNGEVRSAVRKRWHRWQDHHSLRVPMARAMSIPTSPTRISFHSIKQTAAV

T3: anti-target CRF1R receptor (UniProt P34998 24-415, limits assumed)
T3 sequence (looked up): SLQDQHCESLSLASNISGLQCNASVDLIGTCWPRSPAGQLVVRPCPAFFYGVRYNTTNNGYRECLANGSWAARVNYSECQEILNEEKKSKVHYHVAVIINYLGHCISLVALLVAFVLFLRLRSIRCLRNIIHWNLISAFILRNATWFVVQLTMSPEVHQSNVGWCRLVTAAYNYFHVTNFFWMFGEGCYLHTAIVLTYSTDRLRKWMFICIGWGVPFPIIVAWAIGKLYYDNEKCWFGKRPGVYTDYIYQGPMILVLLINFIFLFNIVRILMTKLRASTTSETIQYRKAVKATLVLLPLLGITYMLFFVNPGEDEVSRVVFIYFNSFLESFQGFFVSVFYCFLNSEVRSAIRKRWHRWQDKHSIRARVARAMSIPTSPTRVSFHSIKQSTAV

B1: peptide of SEQ ID NO: 35 (peptide)
peptide: IVLSLDVPIKLK([AEEA-AEEA-γGlu-C18 diacid])KILLEQEKQKKQREQAETNKQILAQV-NH2
modifications: N-terminus assumed
SMILES: CC[C@H](C)[C@H](N)C(=O)N[C@H](C(=O)N[C@@H](CC(C)C)C(=O)N[C@@H](CO)C(=O)N[C@@H](CC(C)C)C(=O)N[C@@H](CC(=O)O)C(=O)N[C@H](C(=O)N1CCC[C@H]1C(=O)N[C@H](C(=O)N[C@@H](CCCCN)C(=O)N[C@@H](CC(C)C)C(=O)N[C@@H](CCCCNC(=O)COCCOCCNC(=O)COCCOCCNC(=O)CC[C@H](NC(=O)CCCCCCCCCCCCCCCCC(=O)O)C(=O)O)C(=O)N[C@@H](CCCCN)C(=O)N[C@H](C(=O)N[C@@H](CC(C)C)C(=O)N[C@@H](CC(C)C)C(=O)N[C@@H](CCC(=O)O)C(=O)N[C@@H](CCC(N)=O)C(=O)N[C@@H](CCC(=O)O)C(=O)N[C@@H](CCCCN)C(=O)N[C@@H](CCC(N)=O)C(=O)N[C@@H](CCCCN)C(=O)N[C@@H](CCCCN)C(=O)N[C@@H](CCC(N)=O)C(=O)N[C@@H](CCCNC(=N)N)C(=O)N[C@@H](CCC(=O)O)C(=O)N[C@@H](CCC(N)=O)C(=O)N[C@@H](C)C(=O)N[C@@H](CCC(=O)O)C(=O)N[C@H](C(=O)N[C@@H](CC(N)=O)C(=O)N[C@@H](CCCCN)C(=O)N[C@@H](CCC(N)=O)C(=O)N[C@H](C(=O)N[C@@H](CC(C)C)C(=O)N[C@@H](C)C(=O)N[C@@H](CCC(N)=O)C(=O)N[C@H](C(N)=O)C(C)C)[C@@H](C)CC)[C@@H](C)O)[C@@H](C)CC)[C@@H](C)CC)C(C)C)C(C)C
B2: peptide of SEQ ID NO: 17 (peptide)
peptide: IVLSLDVPIKLK([γGlu-Palmitoyl])KILLEQEKQKKQREQAETNKQILAQV-NH2
modifications: N-terminus assumed
SMILES: CCCCCCCCCCCCCCCC(=O)N[C@@H](CCC(=O)NCCCC[C@H](NC(=O)[C@H](CC(C)C)NC(=O)[C@H](CCCCN)NC(=O)[C@@H](NC(=O)[C@@H]1CCCN1C(=O)[C@@H](NC(=O)[C@H](CC(=O)O)NC(=O)[C@H](CC(C)C)NC(=O)[C@H](CO)NC(=O)[C@H](CC(C)C)NC(=O)[C@@H](NC(=O)[C@@H](N)[C@@H](C)CC)C(C)C)C(C)C)[C@@H](C)CC)C(=O)N[C@@H](CCCCN)C(=O)N[C@H](C(=O)N[C@@H](CC(C)C)C(=O)N[C@@H](CC(C)C)C(=O)N[C@@H](CCC(=O)O)C(=O)N[C@@H](CCC(N)=O)C(=O)N[C@@H](CCC(=O)O)C(=O)N[C@@H](CCCCN)C(=O)N[C@@H](CCC(N)=O)C(=O)N[C@@H](CCCCN)C(=O)N[C@@H](CCCCN)C(=O)N[C@@H](CCC(N)=O)C(=O)N[C@@H](CCCNC(=N)N)C(=O)N[C@@H](CCC(=O)O)C(=O)N[C@@H](CCC(N)=O)C(=O)N[C@@H](C)C(=O)N[C@@H](CCC(=O)O)C(=O)N[C@H](C(=O)N[C@@H](CC(N)=O)C(=O)N[C@@H](CCCCN)C(=O)N[C@@H](CCC(N)=O)C(=O)N[C@H](C(=O)N[C@@H](CC(C)C)C(=O)N[C@@H](C)C(=O)N[C@@H](CCC(N)=O)C(=O)N[C@H](C(N)=O)C(C)C)[C@@H](C)CC)[C@@H](C)O)[C@@H](C)CC)C(=O)O
B3: peptide of SEQ ID NO: 68 (peptide)
peptide: IVLSLDVPIKLK([AEEA-AEEA-γGlu-C18 diacid])QILLEQERQKKQREQAETNKQILAQV-NH2
modifications: N-terminus assumed
SMILES: CC[C@H](C)[C@H](N)C(=O)N[C@H](C(=O)N[C@@H](CC(C)C)C(=O)N[C@@H](CO)C(=O)N[C@@H](CC(C)C)C(=O)N[C@@H](CC(=O)O)C(=O)N[C@H](C(=O)N1CCC[C@H]1C(=O)N[C@H](C(=O)N[C@@H](CCCCN)C(=O)N[C@@H](CC(C)C)C(=O)N[C@@H](CCCCNC(=O)COCCOCCNC(=O)COCCOCCNC(=O)CC[C@H](NC(=O)CCCCCCCCCCCCCCCCC(=O)O)C(=O)O)C(=O)N[C@@H](CCC(N)=O)C(=O)N[C@H](C(=O)N[C@@H](CC(C)C)C(=O)N[C@@H](CC(C)C)C(=O)N[C@@H](CCC(=O)O)C(=O)N[C@@H](CCC(N)=O)C(=O)N[C@@H](CCC(=O)O)C(=O)N[C@@H](CCCNC(=N)N)C(=O)N[C@@H](CCC(N)=O)C(=O)N[C@@H](CCCCN)C(=O)N[C@@H](CCCCN)C(=O)N[C@@H](CCC(N)=O)C(=O)N[C@@H](CCCNC(=N)N)C(=O)N[C@@H](CCC(=O)O)C(=O)N[C@@H](CCC(N)=O)C(=O)N[C@@H](C)C(=O)N[C@@H](CCC(=O)O)C(=O)N[C@H](C(=O)N[C@@H](CC(N)=O)C(=O)N[C@@H](CCCCN)C(=O)N[C@@H](CCC(N)=O)C(=O)N[C@H](C(=O)N[C@@H](CC(C)C)C(=O)N[C@@H](C)C(=O)N[C@@H](CCC(N)=O)C(=O)N[C@H](C(N)=O)C(C)C)[C@@H](C)CC)[C@@H](C)O)[C@@H](C)CC)[C@@H](C)CC)C(C)C)C(C)C

These binders were tested against T1, recombinant human CRF2 (HEK cell …) (assay: Hill coefficient of the competition curve against [125]sauvagine, HEK membranes with recombinant human CRF2).
Procedure: (§1) HEK cells expressing recombinant human CRF2 were used as a source of receptor for membrane preparation.
(§2) IC50 values (concentration causing a half-maximal inhibition of control specific binding) and Hill coefficients (nH) were determined by non-linear regression analysis of the competition curves generated with mean replicate values using Hill equation curve fitting. The inhibition constants (Ki) were calculated using the Cheng Prusoff equation [Ki=IC50/(1+L/KD) where L is the concentration of radioligand in the assay, and KD is the affinity of the radioligand for the receptor). A Scatchard plot was used to determine the KD.

First: B1
Second: FTLSLDVPTKIK([AEEA-AEEA-γGlu-C20 diacid])QILLKQQKQKKERQQAEKNKQLLEQI-NH2 [peptide of SEQ ID NO: 59]
The nH of the first is higher: 1.7 for the first, 0.6 for the second.

Going from B2 to B3, the nH falls from 1.5 to 0.8.

What follows are binders tested against T1, recombinant human CRF2 (HEK cell …) (assay: radioligand competition against [125]sauvagine (0.1 nM), HEK membranes with recombinant human CRF2; Cheng Prusoff).
Procedure: as §1, §2

B1 and FTLSLDVPTKIK([AEEA-AEEA-γGlu-C20 diacid])QILLKQQKQKKERQQAEKNKQLLEQI-NH2 [peptide of SEQ ID NO: 59] are within 1.5-fold of each other in Ki: 7.9 nM for the first, 7.2 nM for the second.

B2 and B3 are within 1.5-fold of each other in Ki: 4.4 nM for the first, 5.4 nM for the second.

The binders below were run against T2, endogenous human CRF2 (NCI-H82 cells) (assay: cell-based or functional assay).

Going from B1 to FTLSLDVPTKIK([AEEA-AEEA-γGlu-C20 diacid])QILLKQQKQKKERQQAEKNKQLLEQI-NH2 [peptide of SEQ ID NO: 59], the “EC50 [nM] (cAMP, NCI-H82 cells)” value falls from 23 nM to 6.8 nM (3.4-fold).

These binders were tested against rat CRF2R α receptor (rat, UniProt P47866 20-411) (assay: cell-based or functional assay).

First: B1
Second: FTLSLDVPTKIK([AEEA-AEEA-γGlu-C20 diacid])QILLKQQKQKKERQQAEKNKQLLEQI-NH2 [peptide of SEQ ID NO: 59]
The “EC50 [nM], 0% HSA (cAMP, A7R5 cells)” value of the first is 2.4-fold higher: 0.81 nM for the first, 0.34 nM for the second.

For B3, the “EC50 [nM], 0% HSA (cAMP, A7R5 cells)” value was 1.74 nM.

Each binder was assayed against T3, anti-target CRF1R receptor (assay: cell-based or functional assay).

B1 and FTLSLDVPTKIK([AEEA-AEEA-γGlu-C20 diacid])QILLKQQKQKKERQQAEKNKQLLEQI-NH2 [peptide of SEQ ID NO: 59] cannot be ordered by “EC50[nM] 0% HSA (cAMP, CRF1R-overexpression CHO cells)” value: over 1000 nM for the first, over 1000 nM for the second.

B3 was tested, and the “EC50[nM] 0% HSA (cAMP, CRF1R-overexpression CHO cells)” value was over 1000 nM.

Compared with B1, FTLSLDVPTKIK([AEEA-AEEA-γGlu-C20 diacid])QILLKQQKQKKERQQAEKNKQLLEQI-NH2 [peptide of SEQ ID NO: 59] is higher in “Emax (%) (cAMP, CRF1R-overexpression CHO cells)” value: 1.77% for the first, 11.1% for the second.

With B3 the “Emax (%) (cAMP, CRF1R-overexpression CHO cells)” value was 12.3%.
